{
  "source": "patent US20030138859A1",
  "about": "“Assay kits and methods for immune complex-mediate activation involving shed antigens” (BioCrystal, Ltd., priority 1999, published 2003)",
  "key": {"[1]": {"test_system": "mucin-secreting human tumor cell line T-47D", "assay": "In vitro tumor cell invasion assay through matrix (Boyden chamber) with stromal cells", "format": "cell-based", "conditions": "anti-sTn IgG1 mAb", "text": "To illustrate this embodiment, granulocytes (polymorphonuclear cells) were harvested by positive selection from peripheral blood, and macrophages were harvested by peritoneal wash, from C3H-SCID beige mice in order to avoid contaminating mouse NK cells, natural Abs, or any immune recognition by mouse T or B lymphocytes. In this in vitro tumor cell invasion assay, used were mucin-secreting human tumor cell line T-47D, a Boyden chamber, and a commercially available basement membrane matrix preparation (“matrix”) which solidifies into a semisolid matrix. In this assay, tested was the ability of tumor cells (2×10^4 cells) to migrate through the matrix (layered into a 6.5 mm well insert containing a polycarbonate membrane having a 3.0 μm pore size) in the following conditions: matrix alone; matrix containing stromal cells (2×10^5 cells, granulocytes and macrophages combined); matrix in the presence of anti-shed tumor antigen antibody (anti-sTn mAb; IgG1; 0.06 μg); matrix containing stromal cells in the presence of anti-sTn mAb (0.06 μg); and matrix containing stromal cells in the presence of Fab fragments (0.06 μg) of the anti-sTn mAb. […] Invasion was measured by counting the number of tumor cells per well which migrated to the bottom of the chamber after 48 to 72 hours. […]"}, "[2]": {"target": "murine FcγRI on murine cells (Met 129, B16F10, granulocytes, peritoneal macrophages, MH-S macrophages) (mouse) (UniProt P26151)", "sequence (P26151 25-404)": "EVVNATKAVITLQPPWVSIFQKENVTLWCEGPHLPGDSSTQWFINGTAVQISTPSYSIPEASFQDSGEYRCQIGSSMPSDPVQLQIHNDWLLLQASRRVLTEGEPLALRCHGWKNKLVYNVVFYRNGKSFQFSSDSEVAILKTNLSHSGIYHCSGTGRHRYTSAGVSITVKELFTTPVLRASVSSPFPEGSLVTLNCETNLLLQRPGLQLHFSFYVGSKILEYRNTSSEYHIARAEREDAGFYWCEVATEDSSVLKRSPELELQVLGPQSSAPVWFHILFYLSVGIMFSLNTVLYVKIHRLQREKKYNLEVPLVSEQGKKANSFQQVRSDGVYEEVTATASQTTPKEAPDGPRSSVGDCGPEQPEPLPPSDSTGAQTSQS", "assay": "cell-based or functional assay"}, "[3]": {"target": "FcγRI on type 1 or type 2 endothelial cells", "assay": "cell-based or functional assay"}},
  "data": [
    {"molecule": "[N-]=[N+]=[N-]", "note": "[azide, sodium azide]", "values": [
      {"measurement": "reduction in tumor cell migration compared to assay in absence of the substance", "setting": "[1]; 0.001% per well", "value": "~5", "unit": "fold"}
    ]},
    {"molecule": "immune complexes comprising bovine submaxillary mucin and anti-sTn mAb (clone B72.3, IgG1)", "values": [
      {"measurement": "IFN-γ secreted, macrophages + IC (ELISA)", "setting": "[2]", "value": 5.3, "unit": "pg/mL"},
      {"measurement": "IFN-γ secreted, macrophages + tumor cells + IC (ELISA)", "setting": "[2]", "value": 4, "unit": "pg/mL"},
      {"measurement": "IFN-γ secreted, macrophages + tumor cells + neutrophils + IC (ELISA)", "setting": "[2]", "value": 4.1, "unit": "pg/mL"},
      {"measurement": "IL-1β secreted, macrophages + IC (ELISA)", "setting": "[2]", "value": 2.5, "unit": "pg/mL"},
      {"measurement": "IL-1β secreted, macrophages + tumor cells + neutrophils + IC (ELISA)", "setting": "[2]", "value": 22.8, "unit": "pg/mL"},
      {"measurement": "IL-4 secreted, macrophages + IC (ELISA)", "setting": "[2]", "value": 1.5, "unit": "pg/mL"},
      {"measurement": "IL-4 secreted, macrophages + tumor cells + IC (ELISA)", "setting": "[2]", "value": 1.3, "unit": "pg/mL"},
      {"measurement": "IL-4 secreted, macrophages + tumor cells + neutrophils + IC (ELISA)", "setting": "[2]", "value": 0.6, "unit": "pg/mL"},
      {"measurement": "IL-6 secreted, macrophages + IC (ELISA)", "setting": "[2]", "value": 104, "unit": "pg/mL"},
      {"measurement": "IL-6 secreted, macrophages + tumor cells + IC (ELISA)", "setting": "[2]", "value": 400, "unit": "pg/mL"},
      {"measurement": "VEGF production by type 1 endothelial cells (ELISA, 2 h)", "setting": "[3]", "value": "> 5", "unit": "pg/mL"}
    ]},
    {"molecule": "methoxysuccinyl-alanyl-alanyl-prolyl-valine-chloromethylketone [MAAPVC]", "values": [
      {"measurement": "reduction in tumor cell migration compared to assay in absence of the substance", "setting": "[1]; 0.1 μg/well", "value": "~5", "unit": "fold"}
    ]}
  ]
}
